Assay results reported in article PMC12264004, “Super-resolution imaging of native fluorescent photoreceptors in chytrid fungal eyes” (The EMBO Journal, 2025).

Legend:
[1] = test system: T1, CaRGC (homodimeric, full-length); experiment: cGMP by reverse-phase HPLC, Hill fit, crude membranes; format: biochemical, Catenaria anguillulae; details: light-triggered; 10 mM MgCl2; HEPES pH 7.4
T1 construct: homodimer; crude membrane fraction (HEK293T); gene as used in Scheib et al 2018

[2] = substrate: Nc1nc2c(ncn2[C@@H]2O[C@H](COP(=O)(O)OP(=O)(O)OP(=O)(O)O)[C@@H](O)[C@H]2O)c(=O)[nH]1; experiment: cGMP by reverse-phase HPLC, Hill fit; format: biochemical, Rhizoclosmatium globosum; details: GTP:MnCl2 1:2

Nc1nc2c(ncn2[C@@H]2O[C@H](COP(=O)(O)OP(=O)(O)OP(=O)(O)O)[C@@H](O)[C@H]2O)c(=O)[nH]1 [GTP]
Km [1]: 470 ± 50 µM

B1: RGC2-cat/NeoR-cat (Rhizoclosmatium globosum) (protein)
chain 1: ATGSEEYSSVTVFFSDVTNFHALSNKNSTKEMLATLNKLWIEYDVICKRWGVYKVETIGDAFLGVVGAPERVPDHAERAANFAVDVISMVQDFRTDKGEELITRVGLNSGPITAGILGDSNPHWCIVGDAVNTASRMESTSKPMRIHISENTYKLIKNKGFRLEGPDVMNIKGKGTMNTYWINGRS
chain 2: TGAEEYSCVTVFFSDIANFTPLSQRTSTKDMLASLNNMWIEYDKISKKWGMYKVETIGDAFLGVVGAPDRVPDHAERAAEFSIDIIDMIKDFRLVTGEPIQIRAGLNSGPVTAGILGESNPHWCIVGDTVTIASKMEATSKHMKIHIAESTFNLIKSSGKFRTSDSEPVTIKGNVINTFFIEGRA
notes: equimolar mixture of purified C-terminally His-tagged catalytic domains (E. coli); heterodimer
Km ([2]; equimolar mixture): 980 µM

B2: RGC1-cat (Rhizoclosmatium globosum) (protein)
chain: NGAEEYASVTVFFSDITNFVALSGKSSTKDMLATLNKLWVEYDVICKRWGVYKVETIGDAFLGVVGAPDRIPDHAERAANFAIDVIRMVQDFRTVNDEEIVTRIGLNSGPITAGILGDSNPHWCIVGDAVNTASRMESTSKPMRIHISENTYKLINGKGFKLEGPDVMNIKGKGTMNTYWINGRG
notes: soluble catalytic domain aa 365-551, C-terminal His-tag, E. coli ArcticExpress (DE3), 24,997 g/mol, homodimer
Km [2]: 5530 µM

B3: RGC1-cat/NeoR-cat (Rhizoclosmatium globosum) (protein)
chain 1: NGAEEYASVTVFFSDITNFVALSGKSSTKDMLATLNKLWVEYDVICKRWGVYKVETIGDAFLGVVGAPDRIPDHAERAANFAIDVIRMVQDFRTVNDEEIVTRIGLNSGPITAGILGDSNPHWCIVGDAVNTASRMESTSKPMRIHISENTYKLINGKGFKLEGPDVMNIKGKGTMNTYWINGRG
chain 2: TGAEEYSCVTVFFSDIANFTPLSQRTSTKDMLASLNNMWIEYDKISKKWGMYKVETIGDAFLGVVGAPDRVPDHAERAAEFSIDIIDMIKDFRLVTGEPIQIRAGLNSGPVTAGILGESNPHWCIVGDTVTIASKMEATSKHMKIHIAESTFNLIKSSGKFRTSDSEPVTIKGNVINTFFIEGRA
notes: equimolar mixture of purified C-terminally His-tagged catalytic domains (E. coli); heterodimer, some RGC1-cat homodimer remains
Km ([2]; equimolar mixture): 1540 µM
